The IC50 is the concentration needed to halve the response being measured.

To fix the notation:
B1: 6E3 scFv (scFv)
chain: DIQMTQSPSSLSASVGDRVTITCRASQDVGIYVNWFQQKPGKAPRRLIYRATNLADGVPSRFSGSRSGTDFTLTISSLQPEDFATYYCLEFDEHPLTFGGGTKVEIKDGGGSGGGGSGGGGSSEVQLVESGGGLVQPGGSLRLSCAASGFTFNNYWMTWVRQAPGKGLEWVASIDNSGDNTYYPDSVKDRFTISRDNAKNSLYLQMNSLRAEDTAVYYCARGGDIRVSLDFWGQGTLVTVSS
B2: 6C3 scFv (scFv)
chain: B1 chain with R226T, V227L, S228G, F231V
B3: 3B4 scFv (scFv)
chain: B1 chain with V227E, S228G, D230R, F231Y
B4: 3D5 scFv (scFv)
chain: B1 chain with R226K, S228G, F231L
B5: 3B2 scFv (scFv)
chain: B1 chain with R226L, S228G, F231Y
B6: 3C6 scFv (scFv)
chain: B1 chain with R226V, S228G, F231H
B7: 6C1 scFv (scFv)
chain: B1 chain with F91L, R226K, S228G, F231N
B8: 6D5 scFv (scFv)
chain: B1 chain with R226K, F231Q
B9: 6B6 scFv (scFv)
chain: B1 chain with R226I, V227I, F231W
B10: 6A12 scFv (scFv, from a related filing, part only)
scFv: B1 chain with E90Q, F91Y, E93A, R226T, V227T, S228G, L229F, F231Y
B11: 3G8 scFv (scFv, from a related filing, part only)
scFv: B1 chain with E90Q, F91Y, E93A, R226T, V227T, S228G, L229F, F231Y
B12: 6C11 scFv (scFv, from a related filing, part only)
scFv: B1 chain with E90Q, F91Y, E93A, R226T, V227T, S228G, L229F, F231Y
B13: 3B7 scFv (scFv, from a related filing, part only)
scFv: B1 chain with E90Q, E93S, R226T, V227T, S228G, L229F, F231Y

Residue numbers refer to the chain shown, from its start.

One assay deals with T1, biotin labeled hRAGE-Fc (human, UniProt Q15109 24-344, biotin-labeled (site not stated)).
T1 construct: used biotinylated in HTRF and coated in ELISA; also called Biotin-labeled RAGE-Fc; biotinylated-RAGE-Fc; not shown: Fc part not described
T1 sequence (Q15109 24-344): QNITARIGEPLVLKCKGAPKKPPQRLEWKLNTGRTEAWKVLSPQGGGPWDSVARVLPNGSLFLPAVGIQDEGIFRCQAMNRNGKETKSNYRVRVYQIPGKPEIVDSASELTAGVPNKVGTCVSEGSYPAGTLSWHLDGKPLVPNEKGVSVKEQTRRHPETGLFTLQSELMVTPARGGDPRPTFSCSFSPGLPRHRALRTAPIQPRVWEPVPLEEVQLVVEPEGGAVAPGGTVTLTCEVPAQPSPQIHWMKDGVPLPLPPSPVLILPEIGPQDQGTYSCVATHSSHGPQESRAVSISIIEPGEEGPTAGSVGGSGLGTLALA
Put plainly: HTRF competition; scFv against Eu-cryptate XT-M4 for biotin-hRAGE-Fc. For orientation: Time-resolved FRET reads energy transfer from a long-lived donor to a nearby acceptor.
Turning to B1, the IC50 is 1.74 nM.

The molecule B2 registered an IC50 of 1.52 nM.

In turn, B3 displayed a half-inhibitory concentration (IC50) of 1.3 nM.

The molecule B4 registered an IC50 of 2.99 nM.

Molecule B5 had an IC50 of 0.91 nM.

In turn, B6 came in with an IC50 of 1.25 nM.

As to B7, the IC50 turned out to be 4.44 nM. Compared with the last molecule, the IC50 is about 3.6-fold higher.

As to B8, the IC50 stood at 1.45 nM. This IC50 lies about 3.1-fold lower than the previous one.

Consider B9, for which the IC50 amounted to 0.64 nM. This IC50 lies about 2.3-fold lower than the previous one.

The target of another assay is biotin labeled hRAGE-Fc (human) (UniProt Q15109). The assay is described as above.
Chain of biotin labeled hRAGE-Fc (human) (Q15109 24-344): as above
B10 yielded an IC50 of 8.27 nM.

Take B11: the IC50 is 8.08 nM.

Molecule B12 showed an IC50 of 9.03 nM.

For the molecule B13, the IC50 turned out to be 7.35 nM.

The record behind these values is patent US20100120634A1 (Pfizer, published 2010).
